This is an account of results in patent publication US20060030527A1.

In the experiment the target is Fc receptor on THP-1 cells. Put plainly: cell-based or functional assay.

As for “human IgG1 (heat aggregated, plate coated) (antibody)”, the TNF secretion by THP-1 cells on wells coated with 10 ug/well heat aggregated protein was over 40 ng/well.
